Source: paper PMC5844992

How the values were obtained:
[1] = target: HIV-1 NL4-3 wild-type protease (PR) tagged with CFP or YFP (HIV-1 (NL4-3)); assay: FRET or BRET; as a1, cells cultured with 10 nM DRV added with the transfection
[2] = target: HIV-1 NL4-3 wild-type protease (PR) tagged with CFP or YFP (HIV-1 (NL4-3)); assay: FRET or BRET; FRET-based HIV-1 expression assay; COS-7 cells cotransfected with CFP- and YFP-tagged protease clones, 72 h, no DRV; acceptor photobleaching, CFP^A/B ratio > 1 means dimerization; confocal microscope, room temperature

Substance: HIV-1 NL4-3 wild-type protease (PR) tagged with CFP or YFP (enzyme)
- CFP^A/B ratio [1]: 1.04
- CFP^A/B ratio [2]: 1.07
